The assay has as its target T1, human NPY2 receptor (human, UniProt P49146 1-381).
T1 construct: whole, on cells; also called hNPY2-R; hNPY2R
T1 sequence (looked up): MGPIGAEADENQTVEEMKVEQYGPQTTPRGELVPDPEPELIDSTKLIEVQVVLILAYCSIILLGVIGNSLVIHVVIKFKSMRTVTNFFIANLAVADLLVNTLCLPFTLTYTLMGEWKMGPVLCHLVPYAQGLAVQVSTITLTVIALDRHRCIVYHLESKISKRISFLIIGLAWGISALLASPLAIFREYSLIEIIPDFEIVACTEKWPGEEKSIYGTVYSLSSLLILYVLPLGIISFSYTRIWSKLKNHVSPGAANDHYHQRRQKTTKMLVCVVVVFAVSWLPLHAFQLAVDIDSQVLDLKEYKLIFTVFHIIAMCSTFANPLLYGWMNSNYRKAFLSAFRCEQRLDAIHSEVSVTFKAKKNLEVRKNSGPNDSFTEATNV
Put plainly: RLB: displacement of 125I-PYY(1-36) from hNPY2R membranes. As to the method: The filtration RLB assay was carried out in 96-well plates in a final volume of 100 μl per well. Freeze-dried test peptides were dissolved in 100% dimethyl sulfoxide (DMSO) to stock solutions of 1 mM and serial dilutions were performed in assay buffer (50 mM HEPES, 5 mM MgCl₂, 1 mM CaCl₂), pH 7.4) containing 0.2% ovalbumin. […] Next, 80 μL membranes (HTS066M, ChemiSCREEN™ Human Neuropeptide Y2 Receptor Membrane Preparation, CHEMICON) were added to each well to give a final protein concentration of 0.5 μg/well. The plates were sealed and incubated at room temperature for 2 hours in a plate shaker set at 400 rpm. The incubation was stopped by vacuum filtration onto 0.5% polyethylene amine (PEI) presoaked GF/C filters using a 96-well FilterMate™ harvester (Perkin Elmer) followed by four washes with 300 μl/well ice-cold wash buffer (50 mM HEPES, 500 mM NaCl, pH7.4). Filter plates were then dried for 60 min at room temperature and the bottom of the plates was sealed with backing tape UniFilter-96. Finally, 50 μl/well scintillation counter cocktail (Microscint20, Packard) was added and the radioactivity was counted in the Packard TopCount NXT scintillation counter. IC₅₀ values (the half maximal inhibitory concentration of the agonist) were calculated by nonlinear regression analysis of sigmoidal dose-response curves.
On the technique in general: Loss of bound radioactivity is the signal in a displacement assay; it reports binding, not function.

*1 amine or outer side, *2 acyl side, *3 side chain or, on linkers, in order; H or OH if unused. Side-chain parts run from the residue outwards. The star is where a group is joined. C18 diacid = O=C(O)CCCCCCCCCCCCCCCCC(=O)*; γGlu = O=C(O)[C@H](CCC(=O)[*:2])N[*:1]; Isovaleryl = CC(C)CC(=O)*; Ahx = NCCCCCC(=O)O

B1: Compound 22 (peptide)
peptide: Isovaleryl-APEK([Ahx-γGlu-C18 diacid])PEEDPTPEELQRYYVSLRHYYNWLTRQRY-NH2
SMILES: CC(C)CC(=O)N[C@@H](C)C(=O)N1CCC[C@H]1C(=O)N[C@@H](CCC(=O)O)C(=O)N[C@@H](CCCCNC(=O)CCCCCNC(=O)CC[C@H](NC(=O)CCCCCCCCCCCCCCCCC(=O)O)C(=O)O)C(=O)N1CCC[C@H]1C(=O)N[C@@H](CCC(=O)O)C(=O)N[C@@H](CCC(=O)O)C(=O)N[C@@H](CC(=O)O)C(=O)N1CCC[C@H]1C(=O)N[C@H](C(=O)N1CCC[C@H]1C(=O)N[C@@H](CCC(=O)O)C(=O)N[C@@H](CCC(=O)O)C(=O)N[C@@H](CC(C)C)C(=O)N[C@@H](CCC(N)=O)C(=O)N[C@@H](CCCNC(=N)N)C(=O)N[C@@H](Cc1ccc(O)cc1)C(=O)N[C@@H](Cc1ccc(O)cc1)C(=O)N[C@H](C(=O)N[C@@H](CO)C(=O)N[C@@H](CC(C)C)C(=O)N[C@@H](CCCNC(=N)N)C(=O)N[C@@H](Cc1c[nH]cn1)C(=O)N[C@@H](Cc1ccc(O)cc1)C(=O)N[C@@H](Cc1ccc(O)cc1)C(=O)N[C@@H](CC(N)=O)C(=O)N[C@@H](Cc1c[nH]c2ccccc12)C(=O)N[C@@H](CC(C)C)C(=O)N[C@H](C(=O)N[C@@H](CCCNC(=N)N)C(=O)N[C@@H](CCC(N)=O)C(=O)N[C@@H](CCCNC(=N)N)C(=O)N[C@@H](Cc1ccc(O)cc1)C(N)=O)[C@@H](C)O)C(C)C)[C@@H](C)O
One may read the Ki as the equilibrium dissociation constant of an inhibitor or competing ligand from its target. The low end stands for tighter binding, the high end for weaker binding. Molecule B1 came in with a Ki of 4.98 nM.

B2: Compound 29 (peptide)
peptide: Isovaleryl-APEK([Ahx-γGlu-C18 diacid])PEADSSPEELQRYYVSLRHYYNWLTRQRY-NH2
SMILES: CC(C)CC(=O)N[C@@H](C)C(=O)N1CCC[C@H]1C(=O)N[C@@H](CCC(=O)O)C(=O)N[C@@H](CCCCNC(=O)CCCCCNC(=O)CC[C@H](NC(=O)CCCCCCCCCCCCCCCCC(=O)O)C(=O)O)C(=O)N1CCC[C@H]1C(=O)N[C@@H](CCC(=O)O)C(=O)N[C@@H](C)C(=O)N[C@@H](CC(=O)O)C(=O)N[C@@H](CO)C(=O)N[C@@H](CO)C(=O)N1CCC[C@H]1C(=O)N[C@@H](CCC(=O)O)C(=O)N[C@@H](CCC(=O)O)C(=O)N[C@@H](CC(C)C)C(=O)N[C@@H](CCC(N)=O)C(=O)N[C@@H](CCCNC(=N)N)C(=O)N[C@@H](Cc1ccc(O)cc1)C(=O)N[C@@H](Cc1ccc(O)cc1)C(=O)N[C@H](C(=O)N[C@@H](CO)C(=O)N[C@@H](CC(C)C)C(=O)N[C@@H](CCCNC(=N)N)C(=O)N[C@@H](Cc1c[nH]cn1)C(=O)N[C@@H](Cc1ccc(O)cc1)C(=O)N[C@@H](Cc1ccc(O)cc1)C(=O)N[C@@H](CC(N)=O)C(=O)N[C@@H](Cc1c[nH]c2ccccc12)C(=O)N[C@@H](CC(C)C)C(=O)N[C@H](C(=O)N[C@@H](CCCNC(=N)N)C(=O)N[C@@H](CCC(N)=O)C(=O)N[C@@H](CCCNC(=N)N)C(=O)N[C@@H](Cc1ccc(O)cc1)C(N)=O)[C@@H](C)O)C(C)C
B2 had a Ki of 1.36 nM.

B3: Compound 27 (peptide)
peptide: Isovaleryl-APEK([Ahx-γGlu-C18 diacid])PEEDAEPEESQRYYVSLRHYYNWLTRQRY-NH2
SMILES: CC(C)CC(=O)N[C@@H](C)C(=O)N1CCC[C@H]1C(=O)N[C@@H](CCC(=O)O)C(=O)N[C@@H](CCCCNC(=O)CCCCCNC(=O)CC[C@H](NC(=O)CCCCCCCCCCCCCCCCC(=O)O)C(=O)O)C(=O)N1CCC[C@H]1C(=O)N[C@@H](CCC(=O)O)C(=O)N[C@@H](CCC(=O)O)C(=O)N[C@@H](CC(=O)O)C(=O)N[C@@H](C)C(=O)N[C@@H](CCC(=O)O)C(=O)N1CCC[C@H]1C(=O)N[C@@H](CCC(=O)O)C(=O)N[C@@H](CCC(=O)O)C(=O)N[C@@H](CO)C(=O)N[C@@H](CCC(N)=O)C(=O)N[C@@H](CCCNC(=N)N)C(=O)N[C@@H](Cc1ccc(O)cc1)C(=O)N[C@@H](Cc1ccc(O)cc1)C(=O)N[C@H](C(=O)N[C@@H](CO)C(=O)N[C@@H](CC(C)C)C(=O)N[C@@H](CCCNC(=N)N)C(=O)N[C@@H](Cc1c[nH]cn1)C(=O)N[C@@H](Cc1ccc(O)cc1)C(=O)N[C@@H](Cc1ccc(O)cc1)C(=O)N[C@@H](CC(N)=O)C(=O)N[C@@H](Cc1c[nH]c2ccccc12)C(=O)N[C@@H](CC(C)C)C(=O)N[C@H](C(=O)N[C@@H](CCCNC(=N)N)C(=O)N[C@@H](CCC(N)=O)C(=O)N[C@@H](CCCNC(=N)N)C(=O)N[C@@H](Cc1ccc(O)cc1)C(N)=O)[C@@H](C)O)C(C)C
Turning to B3, the inhibitory constant (Ki) came out at 10.5 nM.

B4: Compound 24 (peptide)
peptide: Isovaleryl-APEK([Ahx-γGlu-C18 diacid])PEEDSSPEELQRYYVALRHYYNWLTRQRY-NH2
SMILES: CC(C)CC(=O)N[C@@H](C)C(=O)N1CCC[C@H]1C(=O)N[C@@H](CCC(=O)O)C(=O)N[C@@H](CCCCNC(=O)CCCCCNC(=O)CC[C@H](NC(=O)CCCCCCCCCCCCCCCCC(=O)O)C(=O)O)C(=O)N1CCC[C@H]1C(=O)N[C@@H](CCC(=O)O)C(=O)N[C@@H](CCC(=O)O)C(=O)N[C@@H](CC(=O)O)C(=O)N[C@@H](CO)C(=O)N[C@@H](CO)C(=O)N1CCC[C@H]1C(=O)N[C@@H](CCC(=O)O)C(=O)N[C@@H](CCC(=O)O)C(=O)N[C@@H](CC(C)C)C(=O)N[C@@H](CCC(N)=O)C(=O)N[C@@H](CCCNC(=N)N)C(=O)N[C@@H](Cc1ccc(O)cc1)C(=O)N[C@@H](Cc1ccc(O)cc1)C(=O)N[C@H](C(=O)N[C@@H](C)C(=O)N[C@@H](CC(C)C)C(=O)N[C@@H](CCCNC(=N)N)C(=O)N[C@@H](Cc1c[nH]cn1)C(=O)N[C@@H](Cc1ccc(O)cc1)C(=O)N[C@@H](Cc1ccc(O)cc1)C(=O)N[C@@H](CC(N)=O)C(=O)N[C@@H](Cc1c[nH]c2ccccc12)C(=O)N[C@@H](CC(C)C)C(=O)N[C@H](C(=O)N[C@@H](CCCNC(=N)N)C(=O)N[C@@H](CCC(N)=O)C(=O)N[C@@H](CCCNC(=N)N)C(=O)N[C@@H](Cc1ccc(O)cc1)C(N)=O)[C@@H](C)O)C(C)C
On to B4, for which the Ki was 3.39 nM.

B5: Compound 25 (peptide)
peptide: Isovaleryl-APEK([Ahx-γGlu-C18 diacid])PEADATPEELQRYYISLRHYYNWLTRQRY-NH2
SMILES: CC[C@H](C)[C@H](NC(=O)[C@H](Cc1ccc(O)cc1)NC(=O)[C@H](Cc1ccc(O)cc1)NC(=O)[C@H](CCCNC(=N)N)NC(=O)[C@H](CCC(N)=O)NC(=O)[C@H](CC(C)C)NC(=O)[C@H](CCC(=O)O)NC(=O)[C@H](CCC(=O)O)NC(=O)[C@@H]1CCCN1C(=O)[C@@H](NC(=O)[C@H](C)NC(=O)[C@H](CC(=O)O)NC(=O)[C@H](C)NC(=O)[C@H](CCC(=O)O)NC(=O)[C@@H]1CCCN1C(=O)[C@H](CCCCNC(=O)CCCCCNC(=O)CC[C@H](NC(=O)CCCCCCCCCCCCCCCCC(=O)O)C(=O)O)NC(=O)[C@H](CCC(=O)O)NC(=O)[C@@H]1CCCN1C(=O)[C@H](C)NC(=O)CC(C)C)[C@@H](C)O)C(=O)N[C@@H](CO)C(=O)N[C@@H](CC(C)C)C(=O)N[C@@H](CCCNC(=N)N)C(=O)N[C@@H](Cc1c[nH]cn1)C(=O)N[C@@H](Cc1ccc(O)cc1)C(=O)N[C@@H](Cc1ccc(O)cc1)C(=O)N[C@@H](CC(N)=O)C(=O)N[C@@H](Cc1c[nH]c2ccccc12)C(=O)N[C@@H](CC(C)C)C(=O)N[C@H](C(=O)N[C@@H](CCCNC(=N)N)C(=O)N[C@@H](CCC(N)=O)C(=O)N[C@@H](CCCNC(=N)N)C(=O)N[C@@H](Cc1ccc(O)cc1)C(N)=O)[C@@H](C)O
B5 returned a Ki of 1.55 nM.

B6: Compound 28 (peptide)
peptide: Isovaleryl-APEK([Ahx-γGlu-C18 diacid])PPEDATPEEIQRYYVSLRHYYNWLTRQRY-NH2
SMILES: CC[C@H](C)[C@H](NC(=O)[C@H](CCC(=O)O)NC(=O)[C@H](CCC(=O)O)NC(=O)[C@@H]1CCCN1C(=O)[C@@H](NC(=O)[C@H](C)NC(=O)[C@H](CC(=O)O)NC(=O)[C@H](CCC(=O)O)NC(=O)[C@@H]1CCCN1C(=O)[C@@H]1CCCN1C(=O)[C@H](CCCCNC(=O)CCCCCNC(=O)CC[C@H](NC(=O)CCCCCCCCCCCCCCCCC(=O)O)C(=O)O)NC(=O)[C@H](CCC(=O)O)NC(=O)[C@@H]1CCCN1C(=O)[C@H](C)NC(=O)CC(C)C)[C@@H](C)O)C(=O)N[C@@H](CCC(N)=O)C(=O)N[C@@H](CCCNC(=N)N)C(=O)N[C@@H](Cc1ccc(O)cc1)C(=O)N[C@@H](Cc1ccc(O)cc1)C(=O)N[C@H](C(=O)N[C@@H](CO)C(=O)N[C@@H](CC(C)C)C(=O)N[C@@H](CCCNC(=N)N)C(=O)N[C@@H](Cc1c[nH]cn1)C(=O)N[C@@H](Cc1ccc(O)cc1)C(=O)N[C@@H](Cc1ccc(O)cc1)C(=O)N[C@@H](CC(N)=O)C(=O)N[C@@H](Cc1c[nH]c2ccccc12)C(=O)N[C@@H](CC(C)C)C(=O)N[C@H](C(=O)N[C@@H](CCCNC(=N)N)C(=O)N[C@@H](CCC(N)=O)C(=O)N[C@@H](CCCNC(=N)N)C(=O)N[C@@H](Cc1ccc(O)cc1)C(N)=O)[C@@H](C)O)C(C)C
B6 yielded an inhibition constant (Ki) of 0.49 nM.
